Measurements reported in the supplement of paper PMC7877785.
± gives the uncertainty stated by the source.

Assay: self-splicing fitness, log relative to wild type (ln ratio); higher = more splicing; Tetrahymena group I intron in knt gene, E. coli kanamycin selection, DiMSum; sequences stand for … in CUCUCU…GGAGGGAAAAGUUAUCAGGCAUGCACCUGGUAGCUAGUCUUUAAACCAAUAGAUUGCAUCGGUUUAAAAGGCAAGACCGUCAAAUUGCGGGAAAGGGGUCAACAGCCGUUCAGUACCAAGUCUCAGGGGAAACUUUGAGAUGGCCUUGCAAAGGGUAUGGUAAUAAGCUGACGGACAUGGUCCUAACCACGCAGCCAAGUCCUAAGUCAACAGAUCUUCUGUUGAUAUGGAUGCAGUUCACAGACUAAAUGUCGGUCGGGGAAGAUGUAUUCUUCUCAUAAGAUAUAGUCGGACCUCUCCUUAAUGGGAGCUAGCGGAUGAAGUGAUGCAACACUGGAGCCGCUGGGAACUAAUUUGUAUGCGAAAGUAUAUUGAUUAGUUUUGGAGUACUCGUGGUCG
In short: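 Six replicate transformations of E. coli BL21(DE3) with a pET-22b(+) library were grown overnight at 37°C or 30°C. The library randomised all eight P1ex-region intron nucleotides, the intron lying in the knt kanamycin-resistance gene, and plates were LB agar with or without 25 μg/mL kanamycin plus 100 μg/mL carbenicillin, 50 μM IPTG and 0.2% rhamnose. Pooled colonies were amplicon-sequenced on an Illumina HiSeq 2500, and fitness is the DiMSum error-weighted combination of wild-type-normalised replicate fold changes, kanamycin versus none.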

Sequence	self-splicing fitness (ln) (30 °C)	self-splicing fitness (ln) (37 °C)
UGUCAGCAAUAUUACGGCCU	-0.452 ± 0.23	0.483 ± 0.3
UGUCAGCAAUAUUACGGCUA	0.131 ± 0.094	0.327 ± 0.12
UGUCAGCAAUAUUACGGGUA	-0.294 ± 0.093	0.208 ± 0.11
UGUCAGCAAUAUUACGGGUG	-0.605 ± 0.042	-0.00626 ± 0.067
UGUCAGCAAUAUUACGGUAG	-0.675 ± 0.07	-0.235 ± 0.091
UGUCAGCAAUAUUACGUAAG	-0.352 ± 0.07	0.0208 ± 0.087
UGUCAGCAAUAUUACGUAGC	-3.11 ± 0.2	-2.17 ± 0.19
UGUCAGCAAUAUUACGUCCG	-0.177 ± 0.17	0.083 ± 0.2
UGUCAGCAAUAUUACGUCUA	0.314 ± 0.096	-0.489 ± 0.1
UGUCAGCAAUAUUACGUGAC	-2.8 ± 0.21	-2.81 ± 0.26
UGUCAGCAAUAUUACGUGGA	-1.92 ± 0.1	-0.49 ± 0.11
UGUCAGCAAUAUUACGUUCC	-1.82 ± 0.19	-0.73 ± 0.25
UGUCAGCAAUAUUACGUUCU	-1.16 ± 0.071	-0.142 ± 0.073
UGUCAGCAAUAUUACGUUGC	–	-1.75 ± 0.46
UGUCAGCAAUAUUACGUUUA	-0.825 ± 0.095	-0.114 ± 0.089
UGUGAGCAAUAUUACGAACA	-0.691 ± 0.42	-0.543 ± 0.45
UGUGAGCAAUAUUACGACCA	-1.27 ± 0.17	-0.0518 ± 0.21
UGUGAGCAAUAUUACGAGGU	-3.52 ± 0.26	-2.55 ± 0.23
UGUGAGCAAUAUUACGAGUU	-2.72 ± 0.22	-1.97 ± 0.27
UGUGAGCAAUAUUACGCCCG	-0.83 ± 0.47	-1.17 ± 0.42
UGUGAGCAAUAUUACGCGUG	-1.92 ± 0.11	-1.75 ± 0.11
UGUGAGCAAUAUUACGGCCC	-1.88 ± 0.33	-1.43 ± 0.44
UGUGAGCAAUAUUACGGCCU	-1.89 ± 0.27	-1.18 ± 0.32
UGUGAGCAAUAUUACGGCUG	-0.445 ± 0.12	-0.456 ± 0.19
UGUGAGCAAUAUUACGGGCC	-3 ± 0.31	-3.45 ± 0.39

Sequence	self-splicing fitness (ln) (30 °C)	self-splicing fitness (ln) (37 °C)
UGUGAGCAAUAUUACGGUCG	-0.638 ± 0.094	-0.935 ± 0.12
UGUGAGCAAUAUUACGGUGA	-2.19 ± 0.31	-1.67 ± 0.2
UGUGAGCAAUAUUACGGUUG	-2.98 ± 0.19	-2.17 ± 0.23
UGUGAGCAAUAUUACGUCCU	-0.548 ± 0.1	-1.51 ± 0.18
UGUGAGCAAUAUUACGUCGU	-2.1 ± 0.3	–
UGUGAGCAAUAUUACGUGAC	-4.58 ± 0.32	-3.08 ± 0.25
UGUGAGCAAUAUUACGUGGA	-2.53 ± 0.15	-3.05 ± 0.22
UGUGAGCAAUAUUACGUUUA	-2.98 ± 0.32	-3.17 ± 0.47
UGUGAGCAAUAUUACGUUUG	-2.21 ± 0.14	-2.76 ± 0.26
UGUUAGCAAUAUUACGACGA	-0.147 ± 0.12	0.253 ± 0.15
UGUUAGCAAUAUUACGAGCC	-2.39 ± 0.22	-0.493 ± 0.17
UGUUAGCAAUAUUACGAGCU	-0.427 ± 0.16	0.455 ± 0.19
UGUUAGCAAUAUUACGCAGU	-3.62 ± 0.27	-2.48 ± 0.27
UGUUAGCAAUAUUACGCCCC	–	0.337 ± 0.48
UGUUAGCAAUAUUACGCUUC	–	-1.5 ± 0.48
UGUUAGCAAUAUUACGGAAA	–	-2.24 ± 0.39
UGUUAGCAAUAUUACGGGGG	-3.91 ± 0.35	-1.94 ± 0.36
UGUUAGCAAUAUUACGGGUU	-4.27 ± 0.42	-1.58 ± 0.17
UGUUAGCAAUAUUACGUAAG	-0.949 ± 0.097	-0.452 ± 0.14
UGUUAGCAAUAUUACGUCGA	-0.909 ± 0.12	0.0206 ± 0.13
UGUUAGCAAUAUUACGUCGC	-3.73 ± 0.18	-2.23 ± 0.18
UUAAAGCAAUAUUACGAAGC	-3.34 ± 0.32	-2.25 ± 0.28
UUAAAGCAAUAUUACGACAA	0.44 ± 0.091	0.336 ± 0.11
UUAAAGCAAUAUUACGACGA	0.0585 ± 0.12	0.0349 ± 0.12
UUAAAGCAAUAUUACGACGU	-0.129 ± 0.069	0.0726 ± 0.1

Sequence	self-splicing fitness (ln) (30 °C)	self-splicing fitness (ln) (37 °C)
UUAAAGCAAUAUUACGACUU	-1.11 ± 0.1	-0.0515 ± 0.14
UUAAAGCAAUAUUACGAGAU	-3.41 ± 0.21	-2.19 ± 0.21
UUAAAGCAAUAUUACGCAAU	-2.44 ± 0.15	-1.42 ± 0.17
UUAAAGCAAUAUUACGCACC	-0.965 ± 0.33	-0.676 ± 0.44
UUAAAGCAAUAUUACGCAUC	-1.88 ± 0.17	-1.39 ± 0.34
UUAAAGCAAUAUUACGCCCG	-0.0363 ± 0.09	0.273 ± 0.11
UUAAAGCAAUAUUACGCGAA	-0.169 ± 0.15	0.0649 ± 0.18
UUAAAGCAAUAUUACGCGAU	-3.01 ± 0.24	-0.953 ± 0.17
UUAAAGCAAUAUUACGCGUC	-1.08 ± 0.11	-1.66 ± 0.16
UUAAAGCAAUAUUACGCUGU	-1.31 ± 0.16	-1.68 ± 0.2
UUAAAGCAAUAUUACGGGUG	0.148 ± 0.069	0.271 ± 0.098
UUAAAGCAAUAUUACGGUCA	0.199 ± 0.071	0.479 ± 0.11
UUAAAGCAAUAUUACGGUGC	-4.36 ± 0.42	-2.14 ± 0.34
UUAAAGCAAUAUUACGGUGG	-0.511 ± 0.079	0.0701 ± 0.1
UUAAAGCAAUAUUACGUACU	-0.208 ± 0.079	-0.142 ± 0.099
UUAAAGCAAUAUUACGUGGG	-1.65 ± 0.1	-2.03 ± 0.17
UUAAAGCAAUAUUACGUUCA	0.284 ± 0.087	0.233 ± 0.12
UUAAAGCAAUAUUACGUUCG	0.19 ± 0.084	-0.157 ± 0.096
UUACAGCAAUAUUACGACCA	-0.658 ± 0.14	-0.854 ± 0.18
UUACAGCAAUAUUACGACCC	-2.6 ± 0.32	-2.14 ± 0.44
UUACAGCAAUAUUACGAGUC	-4.54 ± 0.3	-2.84 ± 0.26
UUACAGCAAUAUUACGAGUG	-1.16 ± 0.069	-0.895 ± 0.079
UUACAGCAAUAUUACGAUCG	-0.32 ± 0.09	-0.268 ± 0.11
UUACAGCAAUAUUACGCGAA	-1.02 ± 0.12	-0.94 ± 0.11
UUACAGCAAUAUUACGCGGU	-2.9 ± 0.12	-3.15 ± 0.24

Sequence	self-splicing fitness (ln) (30 °C)	self-splicing fitness (ln) (37 °C)
UUACAGCAAUAUUACGCUAA	-2.01 ± 0.13	-0.87 ± 0.11
UUACAGCAAUAUUACGCUAC	-3.71 ± 0.22	-1.96 ± 0.24
UUACAGCAAUAUUACGCUGA	-3.22 ± 0.17	-2.55 ± 0.19
UUACAGCAAUAUUACGGCAC	-1.77 ± 0.17	-2.26 ± 0.18
UUACAGCAAUAUUACGGCAG	-0.142 ± 0.077	0.248 ± 0.11
UUACAGCAAUAUUACGGGCA	-1.01 ± 0.1	-0.657 ± 0.11
UUACAGCAAUAUUACGGGUA	-1.94 ± 0.097	-0.854 ± 0.087
UUACAGCAAUAUUACGGUGG	-1.08 ± 0.087	-0.457 ± 0.1
UUACAGCAAUAUUACGUAUC	-3.33 ± 0.19	-3.28 ± 0.24
UUACAGCAAUAUUACGUCAC	–	-1.8 ± 0.23
UUACAGCAAUAUUACGUCCC	-3.48 ± 0.24	-1.31 ± 0.25
UUACAGCAAUAUUACGUCCU	-2.11 ± 0.1	-0.74 ± 0.089
UUACAGCAAUAUUACGUCGC	-2.92 ± 0.17	-2.55 ± 0.18
UUACAGCAAUAUUACGUCUA	-0.0634 ± 0.086	-0.0325 ± 0.079
UUACAGCAAUAUUACGUCUG	-1.59 ± 0.13	-1.07 ± 0.12
UUACAGCAAUAUUACGUGAU	-4.22 ± 0.19	-2.37 ± 0.17
UUACAGCAAUAUUACGUGCG	-0.895 ± 0.092	-0.0854 ± 0.12
UUACAGCAAUAUUACGUUGC	-3.56 ± 0.37	-2.37 ± 0.26
UUAGAGCAAUAUUACGAAAC	-2.21 ± 0.41	–
UUAGAGCAAUAUUACGACAG	-0.55 ± 0.082	-0.391 ± 0.1
UUAGAGCAAUAUUACGAUGG	-1.02 ± 0.15	0.108 ± 0.19
UUAGAGCAAUAUUACGCAGC	-3.08 ± 0.35	–
